According to patent publication US9133440B2, “Generation of new pancreatic beta cells” (priority 2012, dated 2015):

Tests used:
Reg Receptor [1] = biological target: T1, Reg Receptor (Homo sapiens, UniProt O43909); assay: Direct binding of Perle peptides to purified Reg Receptor coated on 96 well plate (strep-HRP, absorbance at 405 nm); parameters: FLAG; made in house; host or cells: 293T cells (transient transfection, harvested after 72 hours); conditions: FIG. 9; for strength of binding to the Reg Receptor relative to the other peptides tested: comparison among 7-, 8-, 9-amino acid Perle peptides, HIP and scrambled control; for direct binding to the Reg Receptor: purified Reg Receptor coated on plate, peptides bound 1 hour at room temperature, absorbance at 405 nm
T1 sequence (O43909 1-919): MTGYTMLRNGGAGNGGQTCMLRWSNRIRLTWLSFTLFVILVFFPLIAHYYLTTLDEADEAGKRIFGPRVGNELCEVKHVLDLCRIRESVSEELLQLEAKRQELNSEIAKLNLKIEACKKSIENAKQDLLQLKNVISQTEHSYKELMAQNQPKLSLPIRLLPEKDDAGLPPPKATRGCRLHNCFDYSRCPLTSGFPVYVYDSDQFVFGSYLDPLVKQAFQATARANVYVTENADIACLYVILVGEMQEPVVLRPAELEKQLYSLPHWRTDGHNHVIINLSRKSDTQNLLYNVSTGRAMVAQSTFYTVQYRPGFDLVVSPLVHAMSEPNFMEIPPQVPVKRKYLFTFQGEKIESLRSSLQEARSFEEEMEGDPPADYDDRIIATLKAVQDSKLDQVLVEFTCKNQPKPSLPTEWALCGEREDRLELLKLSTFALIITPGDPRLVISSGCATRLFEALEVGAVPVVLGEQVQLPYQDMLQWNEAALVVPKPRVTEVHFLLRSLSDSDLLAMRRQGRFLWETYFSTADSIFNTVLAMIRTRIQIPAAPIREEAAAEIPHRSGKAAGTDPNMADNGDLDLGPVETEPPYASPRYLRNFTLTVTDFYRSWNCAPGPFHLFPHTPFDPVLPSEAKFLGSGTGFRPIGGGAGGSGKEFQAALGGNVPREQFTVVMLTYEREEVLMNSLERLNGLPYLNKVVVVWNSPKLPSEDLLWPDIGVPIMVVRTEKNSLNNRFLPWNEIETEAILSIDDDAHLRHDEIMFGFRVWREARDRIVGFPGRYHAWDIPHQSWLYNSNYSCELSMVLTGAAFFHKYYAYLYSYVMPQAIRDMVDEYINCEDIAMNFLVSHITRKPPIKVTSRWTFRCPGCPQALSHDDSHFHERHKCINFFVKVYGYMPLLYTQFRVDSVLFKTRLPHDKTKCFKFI
Description: Cells were collected after 72 hours. The Reg Receptor was tagged with FLAG epitope and FLAG resin was utilized to purify out the Reg Receptor. […] The Reg Receptor was purified by Anti-Flag M2 affinity gel. Target protein was confirmed by 4-12% SDS-PAGE and Western-blot. […] FIGS. 7b and 7c are the Western blot results showing that the purified protein is the Reg Receptor using the antibody to the Reg Receptor (CD104). The Reg Receptor is shown In FIG. 7 to be highly purified.
Plates were coated overnight coated plate and washed three times with 0.5×TBST and blocked with 3% BSA and rotated at room temperature for 1 hour. After blocking, plates were washed three times with 0.5×TBST. Peptides were then diluted with TBST buffer and added into wells in duplicate then left to bind at room temperature for 1 hour. After washing three times, 100 ng/ml strep-HRP was added into plate at 100 ul/well, and rotated at room temperature for one hour. ABST reagents were warmed to room temperature, mixed immediately before using. Then 100 ul was added to each well and read after 25 minutes reaction and absorbance was evaluated at 405 nm by a Spectramax M5 plate reader. The purified Reg Receptor was coated on plates. Then plates were blocked with BSA solution. Subsequently, the Perle peptides were added into the wells, and HRP-straptavidin and its substrates were added into the wells to reveal the interaction between Receptor and the Perle peptide.

[2] = system: new small islets developing from non-endocrine tissue; conditions: cited from earlier work; for levels of new islet markers NGN3, NKX6.1, SOX9, and INS: five days after treatment; for increase in the volume of new small islets developing from non-endocrine tissue: in vivo
[3] = cited from earlier work
[4] = biological target: 20 amino acid Reg Receptor sequence (SEQ ID NO:9) (amino acids 117-136) (Homo sapiens, UniProt O43909); assay: Enzyme ImmunoAssay titers of polyclonal antibodies raised to the 20-amino acid Reg Receptor sequence; assay type: binding; conditions: reference range of FIG. 13; bleed after day 0 and day 21 boosts
Description: FIGS. 11-13 were from studies undertaken to develop stimulatory antibodies to the Reg Receptor to accelerate the progression of beta cell formation by stimulating potential binding sites on the Reg Receptor. For the production of […] antibodies, many sequences were evaluated within the N-terminal portion of Reg receptor (amino acids 1-332) (SEQ ID NO:13), which is the amino acid region believed to be the binding domain for the Reg peptides within the Reg receptor that is not contained in the other members of the of Exostoses family, and thus is hypothesized to be the Reg binding domain.
Data sets were taken from the bleed after the day 0 and day 21 boosts. The animals were injected with a peptide of SEQ ID NO: 9 and were conjugated to keyhole limpet hemocyanin (KLH). […] At a dilution of 1:750,000, the absorbance fell within a range of 0.45 to 0.9. […]
Previous studies have identified that Reg proteins and peptides act through a 919-amino acid cell-surface protein. […] For the production of stimulatory antibodies, sequences were evaluated within the N-terminal portion of the putative Reg Receptor (amino acids 1-332) (SEQ ID NO:13), which is the amino acid region of Reg Receptor that is not contained in the other members of the of Exostoses family, and thus is hypothesized to be the Reg binding domain.

Reg Receptor [5] = biological target: T1, Reg Receptor; assay: Western blot analysis of Reg Receptor translocation from cytoplasmic membrane to nucleus in human extra-islet ductal cells; assay type: cell-based; conditions: Perle peptide 167 nM once a day for four days, cytosolic and nuclear fractions, shorter and longer exposure times
Description: Western blot analysis identified the presence of the Reg receptor on the cytoplasmic membrane and the movement of the Reg Receptor from the cytoplasmic membrane through the cytoplasm to the nucleus in the presence of the Perle peptides. Cytoplasmic extracts were obtained in 10 mM HEPES (pH 8.0), 1 mM EDTA, 1.5 mM MgCl2, 10 mM KCl, 0.5 mM DTT, 200 mM sucrose and 0.5% Nonidet P-40. Nuclear extracts were obtained in 20 mM HEPES (pH 7.9), 0.75 mM MgCl2, 210 mM NaCl, 50 mM KCl, 1 mM EDTA, 10% glycerol, and 0.5 mM DTT. Both extraction buffers contained 0.5 mM PMSF, 1 μg/ml leupeptin, 1 μg/ml aprotinin, 2.5 mM Na4P2O7, 1 mM β-glycerophosphate, and 1 mM Na3VO4. […] Secondary signals were developed with chemiluminescence substrate and analyzed by autoradiography. […]
Human extra-islet ductal cells were seeded in T75 flasks in Dulbecco's Modified Eagle media containing 10% fetal bovine serum. […] In these cell extracts the total protein levels were determined, and 50 micrograms of total protein were used to perform the western blot analysis. […]
Analyses were performed from cytoplasmic extracts were obtained in 10 mM HEPES (pH 8.0), 1 mM EDTA, 1.5 mM MgCl2, 10 mM KCl, 0.5 mM DTT, 200 mM sucrose and 0.5% Nonidet P-40. […] Secondary signals were developed with chemiluminescence substrate and analyzed by autoradiography. […]

[6] = system: human pancreatic ductal tissue devoid of islets; conditions: cited from earlier work
[7] = system: STZ-rendered diabetic mice; conditions: cited from earlier work

## HIP: 14-amino Reg 3a peptide sequence (Human Proislet Peptide), prior art (IGLHDPTQGTEPNG; listed as Homo sapiens) [reference compound]
Reg Receptor [1]
  strength of binding to the Reg Receptor relative to the other peptides tested: same level of binding as the scrambled peptide
  direct binding to the Reg Receptor: no direct binding
[2]
  levels of new islet markers NGN3, NKX6.1, SOX9, and INS: increased levels
  increase in the volume of new small islets developing from non-endocrine tissue: 2 fold

## INGAP: 15-amino acid peptide within the hamster Reg3gamma peptide sequence, prior art (IGLHDPSHGTLPNGS; listed as Mesocricetus auratus)
[2]
  levels of new islet markers NGN3, NKX6.1, SOX9, and INS: increased levels
  increase in the volume of new small islets developing from non-endocrine tissue: 2 fold
[3]; human type 1 patients, by day 56, p<0.001
  rise in stimulated C-peptide: 27%
[3]; type 1 patients, p=0.0057
  increase in stimulated C-peptide: 27%

## NVWIGLHDP (listed as Homo sapiens) [SEQ. ID NO. 1, 9-amino acid Perle peptide within human Reg1a and Reg1b]
Reg Receptor [1]
  direct binding to the Reg Receptor: demonstrated binding
Reg Receptor [1]; listed as 9-amino acid Perle peptide
  direct binding to the Reg Receptor: bind directly

## SEQ ID NO: 9: 20-amino acid binding site within the human Reg receptor (amino acids 117-136), used as immunogen (CKKSIENAKQDLLQLKNVIS; listed as Homo sapiens)
[4]
  response to the antigen according to the polyclonal titer reference range: high response

## VWIGLHDP (listed as Homo sapiens) [SEQ. ID NO. 4, 8-amino acid Perle peptide within human Reg1a, Reg1b and Reg3a]
Reg Receptor [5]; listed as 8-amino acid Perle peptide
  translocation of the Reg Receptor from the cytoplasm to the nucleus: greatest ability
Reg Receptor [5]; listed as 8-amino-acid Perle Peptide
  translocation of the Reg Receptor from the cytoplasm to the nucleus: greatest impact
Reg Receptor [1]
  strength of binding to the Reg Receptor relative to the other peptides tested: greatest binding
  direct binding to the Reg Receptor: bind directly
Reg Receptor [1]; listed as 8-amino acid peptide
  strength of binding to the Reg Receptor relative to the other peptides tested: strongest in binding

## WIGLHDP (listed as Homo sapiens) [SEQ. ID NO. 7, 7-amino acid Perle peptide within human Reg1a, Reg1b, Reg3a and Reg4]
Reg Receptor [1]
  direct binding to the Reg Receptor: demonstrated binding
Reg Receptor [1]; listed as 7-amino acid Perle peptide
  direct binding to the Reg Receptor: bind directly

B1: Reg3a protein: human Reg3a gene protein given to ductal tissue and STZ diabetic mice in the inventor's earlier study (protein, listed as Homo sapiens)
chain: MLPPMALPSVSWMLLSCLMLLSQVQGEEPQRELPSARIRCPKGSKAYGSHCYALFLSPKSWTDADLACQKRPSGNLVSVLSGAEGSFVSSLVKSIGNSYSYVWIGLHDPTQGTEPNGEGWEWSSSDVMNYFAWERNPSTISSPGHCASLSRSTAFLRWKDYNCNVRLPYVCKFTD
[6]
  insulin concentrations: significant increase
[7]; STZ-rendered diabetic mice
  rise in total beta cells staining insulin: 3 fold
[7]; overnight fast, morning of day 39 of treatment, P=0.020 vs placebo
  fasting glucose: 111.00 ± 11.4 mg/dL
